Kd and fold lower affinity than PALI1-K1219me3 and PALI1-K1241me3 data for five substances are collected here from publication PMC8319299.

The subject of data set [1] is PRC2 core (EZH2-EED-SUZ12-RBBP4) (Homo sapiens), Q15910-2+O75530+Q15022+Q09028. The data set can be described thus: EMSA. The settings on record: 50 mM Tris-HCl pH 7.5 (25 C), 100 mM KCl, 2 mM 2-mercaptoethanol, 0.1 mg/mL BSA, 0.05% NP-40; FA at 30 C; nucleosome EMSA with 5% glycerol at 4 C (+5 ng/uL …).
Data set [2] relates to PRC2-PALI1 PIR (Homo sapiens), Q15910-2+O75530+Q15022+Q09028+Q96JN0-3. The data set can be described thus: EMSA. The note with it: 50 mM Tris-HCl pH 7.5 (25 C), 100 mM KCl, 2 mM 2-mercaptoethanol, 0.1 mg/mL BSA, 0.05% NP-40; FA at 30 C; nucleosome EMSA with 5% glycerol at 4 C (+5 ng/uL …). On the technique in general: Mobility shift assays separate free from complexed probe on a gel.

Data set [3] has as its system PRC2-PALI1 PIR-long (Homo sapiens), Q15910-2+O75530+Q15022+Q09028+Q96JN0-3. The data set can be described thus: EMSA. The settings on record: 50 mM Tris-HCl pH 7.5 (25 C), 100 mM KCl, 2 mM 2-mercaptoethanol, 0.1 mg/mL BSA, 0.05% NP-40; FA at 30 C; nucleosome EMSA with 5% glycerol at 4 C (+5 ng/uL …).
Data set [4] addresses EED (amino acids 40-441) (human) (UniProt O75530). Description: fluorescence polarisation; fluorescence anisotropy displacement titration: 2-fold serial dilutions of unlabelled peptide with 10 µM EED and 40 nM 5-FAM labelled JARID2-K116me3 peptide; same buffer, 30 °C; Kd of the unlabelled peptide from a fit. Background: Polarisation of emitted light reports the rotation of a fluorescent probe.

pKd: −log10 of the molar value.

One may read the pKd as the Kd on a negative log10 scale, so that one unit is a factor of ten.

Sequence of PRC2 core (EZH2-EED-SUZ12-RBBP4) (Homo sapiens), Q15910-2+O75530+Q15022+Q09028 (Q15910 other isoform, or with tags, fused parts or gaps, chain 1 of 4): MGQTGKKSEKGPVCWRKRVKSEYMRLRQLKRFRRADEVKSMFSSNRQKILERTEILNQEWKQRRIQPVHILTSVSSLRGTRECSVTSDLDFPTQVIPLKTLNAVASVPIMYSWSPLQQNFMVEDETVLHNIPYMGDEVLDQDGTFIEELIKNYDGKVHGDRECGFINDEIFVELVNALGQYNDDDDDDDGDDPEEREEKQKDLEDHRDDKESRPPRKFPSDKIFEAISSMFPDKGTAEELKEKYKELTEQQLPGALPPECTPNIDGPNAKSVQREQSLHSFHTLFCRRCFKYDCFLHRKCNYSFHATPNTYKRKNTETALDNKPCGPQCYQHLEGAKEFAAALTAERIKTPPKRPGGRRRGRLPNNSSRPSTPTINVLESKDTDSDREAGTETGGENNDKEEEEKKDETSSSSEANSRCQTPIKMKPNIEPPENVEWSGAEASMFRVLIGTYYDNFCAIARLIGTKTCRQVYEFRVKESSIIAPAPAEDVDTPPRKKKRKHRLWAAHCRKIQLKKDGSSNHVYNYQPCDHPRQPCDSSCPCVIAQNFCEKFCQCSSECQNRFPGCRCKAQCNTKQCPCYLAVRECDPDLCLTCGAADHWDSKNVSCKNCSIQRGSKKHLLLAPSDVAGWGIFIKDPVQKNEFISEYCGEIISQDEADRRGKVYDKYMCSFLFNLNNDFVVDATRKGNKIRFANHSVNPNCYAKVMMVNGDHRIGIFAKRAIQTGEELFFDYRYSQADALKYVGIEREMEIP
Sequence of PRC2 core (EZH2-EED-SUZ12-RBBP4) (Homo sapiens), Q15910-2+O75530+Q15022+Q09028 (O75530 whole entry, chain 2 of 4): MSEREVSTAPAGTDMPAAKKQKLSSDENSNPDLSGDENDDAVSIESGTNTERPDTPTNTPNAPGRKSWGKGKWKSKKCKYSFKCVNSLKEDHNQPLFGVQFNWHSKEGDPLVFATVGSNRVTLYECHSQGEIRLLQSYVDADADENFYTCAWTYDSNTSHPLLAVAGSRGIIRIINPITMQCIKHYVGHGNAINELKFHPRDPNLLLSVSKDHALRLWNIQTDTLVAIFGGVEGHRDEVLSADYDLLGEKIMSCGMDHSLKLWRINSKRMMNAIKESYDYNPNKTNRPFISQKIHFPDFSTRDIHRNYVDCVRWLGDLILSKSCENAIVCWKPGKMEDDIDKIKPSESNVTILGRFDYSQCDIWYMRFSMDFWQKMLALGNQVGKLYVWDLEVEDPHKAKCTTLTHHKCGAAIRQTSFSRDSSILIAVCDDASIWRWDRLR
Sequence of PRC2 core (EZH2-EED-SUZ12-RBBP4) (Homo sapiens), Q15910-2+O75530+Q15022+Q09028 (Q15022 whole entry, chain 3 of 4): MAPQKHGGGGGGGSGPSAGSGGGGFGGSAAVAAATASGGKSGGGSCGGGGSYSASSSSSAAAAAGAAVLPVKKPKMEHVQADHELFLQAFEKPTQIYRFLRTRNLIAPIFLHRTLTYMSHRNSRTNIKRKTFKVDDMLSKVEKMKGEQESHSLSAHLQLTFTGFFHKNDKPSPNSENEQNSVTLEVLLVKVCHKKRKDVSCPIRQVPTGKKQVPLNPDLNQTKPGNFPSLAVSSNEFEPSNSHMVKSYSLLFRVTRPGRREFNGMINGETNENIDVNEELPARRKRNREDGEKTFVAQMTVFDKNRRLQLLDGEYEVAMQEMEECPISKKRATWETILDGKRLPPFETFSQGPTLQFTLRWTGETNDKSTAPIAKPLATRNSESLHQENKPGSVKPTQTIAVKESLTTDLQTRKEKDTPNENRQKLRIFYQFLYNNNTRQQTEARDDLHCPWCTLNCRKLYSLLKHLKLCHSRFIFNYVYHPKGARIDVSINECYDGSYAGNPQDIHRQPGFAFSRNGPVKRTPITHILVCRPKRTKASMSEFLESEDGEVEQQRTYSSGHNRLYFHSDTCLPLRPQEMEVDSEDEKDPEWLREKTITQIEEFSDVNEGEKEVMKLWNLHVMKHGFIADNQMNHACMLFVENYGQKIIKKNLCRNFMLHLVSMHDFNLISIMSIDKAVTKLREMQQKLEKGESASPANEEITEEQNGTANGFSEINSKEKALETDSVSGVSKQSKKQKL
Sequence of PRC2 core (EZH2-EED-SUZ12-RBBP4) (Homo sapiens), Q15910-2+O75530+Q15022+Q09028 (Q09028 whole entry, chain 4 of 4): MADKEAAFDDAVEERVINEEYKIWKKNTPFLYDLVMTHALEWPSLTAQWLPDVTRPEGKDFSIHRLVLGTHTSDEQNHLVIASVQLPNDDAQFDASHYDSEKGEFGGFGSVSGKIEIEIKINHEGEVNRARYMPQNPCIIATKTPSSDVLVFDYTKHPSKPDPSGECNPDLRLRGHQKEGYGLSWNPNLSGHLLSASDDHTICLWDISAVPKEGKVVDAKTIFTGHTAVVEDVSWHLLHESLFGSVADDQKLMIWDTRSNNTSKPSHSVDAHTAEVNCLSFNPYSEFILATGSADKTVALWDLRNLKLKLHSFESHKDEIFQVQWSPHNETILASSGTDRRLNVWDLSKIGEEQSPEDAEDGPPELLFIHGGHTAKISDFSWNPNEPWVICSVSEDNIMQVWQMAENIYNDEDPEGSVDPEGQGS
Sequence of EED (amino acids 40-441) (human) (O75530 40-441): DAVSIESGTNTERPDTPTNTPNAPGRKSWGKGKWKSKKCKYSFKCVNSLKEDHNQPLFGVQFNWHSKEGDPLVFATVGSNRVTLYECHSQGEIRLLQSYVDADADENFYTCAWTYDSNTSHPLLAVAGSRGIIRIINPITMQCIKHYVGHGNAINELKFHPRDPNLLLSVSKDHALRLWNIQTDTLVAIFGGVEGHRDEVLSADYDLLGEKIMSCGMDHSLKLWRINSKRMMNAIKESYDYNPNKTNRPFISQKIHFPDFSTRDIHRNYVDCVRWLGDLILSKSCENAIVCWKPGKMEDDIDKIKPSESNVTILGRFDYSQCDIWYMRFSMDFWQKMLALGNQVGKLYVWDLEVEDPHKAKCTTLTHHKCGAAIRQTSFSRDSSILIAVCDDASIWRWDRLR

For “ACCTCGCGAATGCATCTAGATGATATCGAGAATCCCGGTGCCGAGGCCGCTCAATTGGTCGTAGACAGCTCTAGCACCGCTTAAACGCACGTACGCGCTGTCCCCCGCGTTTTAACCGCCAAGGGGATTACTCCCTAGTCTCCAGGCACGTGTCAGATATATACATCCGATATCGGCGCCCT (double strand) [NCP182, H2A-Cy5]”, the pKd in data set [1] was 5.85; in data set [2], 7.77.

Turning to “ACCTCGCGAATGCATCTAGATGATATCGAGAATCCCGGTGCCGAGGCCGCTCAATTGGTCGTAGACAGCTCTAGCACCGCTTAAACGCACGTACGCGCTGTCCCCCGCGTTTTAACCGCCAAGGGGATTACTCCCTAGTCTCCAGGCACGTGTCAGATATATACATCCGATATCGGCGCCCT (double strand) [mononucleosome 182 bp, Cy5-DNA]”, the pKd was 6.48 in data set [1] and 7.72 in data set [3].

Take “CTGGAGAATCCCGGTGCCGAGGCCGCTCAATTGGTCGTAGACAGCTCTAGCACCGCTTAAACGCACGTACGCGCTGTCCCCCGCGTTTTAACCGCCAAGGGGATTACTCCCTAGTCTCCAGGCACGTGTCAGATATATACATCCTGT (double strand) [NCP147, H2A-Cy5]”: the pKd in data set [1] is 5.59; in data set [2], 7.31.

Substance PALI1-K1214me3 peptide displayed a fold lower affinity than PALI1-K1219me3 and PALI1-K1241me3 in data set [4] of 4 fold.

Turning to PALI2-K1558me3 peptide, the pKd in data set [4] is 5.06.
